*1 amine or outer side, *2 acyl side, *3 side chain or, on linkers, in order; H or OH if unused. Where no end group is shown, it is not given here. [ ]: non-standard residue; d: D form. pT = C[C@@H](OP(=O)(O)O)[C@H](N)C(=O)O; Suc = O=C(CCC(=O)[*:2])[*:1]
T1: TbPar42 PPIase domain (264-383) (T. brucei, succinyl on the N-terminus; phosphothreonine at position 2; C-terminal amide / 15N-labelled, wild type; entity position 1 = Pro264 (offset 263), so checks are His271, Cys333, Leu374; residual GP from)
T1 chain: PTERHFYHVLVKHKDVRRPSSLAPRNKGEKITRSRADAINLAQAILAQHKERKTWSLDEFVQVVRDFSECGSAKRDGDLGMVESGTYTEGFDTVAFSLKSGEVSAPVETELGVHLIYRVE


molecular target: TbPar42 N-terminal extended FHA domain (1-177) (Trypanosoma brucei, UniProt Q57XM6 1-177); experiment: NMR titration; unlabelled Ala-Glu-Ala-pThr-Ala-Glu-Xaa peptide added stepwise up to 8 mM to 250 µM 15N-labelled NterFHA; 1H-15N-HSQC, 27 °C; mean KD values; conditions: both partners purified

| Binder | Kd |
| --- | --- |
| AEA[pT]AES [Ala-Glu-Ala-pThr-Ala-Glu-Ser] | 3.1 mM |
| AEA[pT]AED [Ala-Glu-Ala-pThr-Ala-Glu-Asp] | 3.4 mM |
| AEA[pT]AEV [Ala-Glu-Ala-pThr-Ala-Glu-Val] | 3.9 mM |
| AEA[pT]AEI [Ala-Glu-Ala-pThr-Ala-Glu-Ile] | 4.1 mM |
| AEA[pT]AEE [Ala-Glu-Ala-pThr-Ala-Glu-Glu] | 5.4 mM |

Molecular target: T1, TbPar42 PPIase domain (264-383)
Experiment: NMR titration; 440 uM 15N-labelled NterFHA or PPIase in 50 mM potassium phosphate, pH 6.26, 90%/10% H2O/D2O; peptide added stepwise to 13 mM; 1H-15N-HSQC or SOFAST spectra, 700 MHz, 27 °C
Conditions: both partners purified

| Binder | Kd |
| --- | --- |
| Suc-A[pT]PA-NH2 (SMILES C[C@H](NC(=O)[C@@H]1CCCN1C(=O)[C@@H](NC(=O)[C@H](C)NC(=O)CCC(=O)O)[C@@H](C)OP(=O)(O)O)C(N)=O, also called phosphorylated model peptide; source: synthetic peptide, bought: CASLO) [Suc-Ala-pThr-Pro-Ala-NH2] | ~10 mM |

From article PMC6468809, “Structural Analysis of the 42 kDa Parvulin of Trypanosoma brucei” (Biomolecules, 2019)
